Results from the supplement of paper PMC10126150.
± gives the standard deviation of the averaged measurements.

System: ATP
Test: switch fluorescence ratio, 500 uM ATP over buffer (Cy3 cluster intensity, sum of 5 cycles each) (fold (ratio)); higher = stronger signal-on switching upon ATP binding; sequences stand for … in TCGTCGGCAGCGTCAGATGTGTATAAGAGACAGTTTTTTTTTTTTTTTTTTTTTTTTT…TC
Conditions: aptamer strand: ATP DNA aptamer (quencher-CACCTGGGGGAGTATTGCGGAGGAAGG + anchor), 100 nM annealed; ATP concentration: 500 uM
In short: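 The fluorescence ratio divides summed target-cycle Cy3 intensity by summed buffer-cycle Cy3 intensity for each cluster and is averaged per switch-domain sequence. Cy3-labelled switching-strand clusters on a modified Illumina MiSeq flow-cell were annealed to 100 nM quencher-labelled ATP aptamer, then imaged in selection buffer and again after 15 min with 500 uM ATP at 22 °C. Five such cycles were run, with NaOH stripping and re-annealing between them, and clusters outside 100-1000 RFU were excluded.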
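Note: ATP exposure 15 min at 22 °C before imaging.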

Sequence	switch fluorescence ratio
AAAGGCCAGT	1.03 ± 0.018
AAAGGCCGGA	1.03 ± 0.041
AAAGGCCGTC	1.04 ± 0.012
AAAGGCCTG	1.01 ± 0.017
AAAGGCTCGG	0.978 ± 0.022
AAAGGGCTCT	0.9821 ± 0.0078
AAAGGGGTTT	1.02 ± 0.022
AAAGGGTATA	0.978 ± 0.064
AAAGGGTGGC	1.01 ± 0.028
AAAGGGTTGC	0.999 ± 0.041
AAAGGTAGGG	0.993 ± 0.032
AAAGGTAGTA	0.9934 ± 0.0097
AAAGGTCAGG	1 ± 0.028
AAAGGTGCCA	1.05 ± 0.015
AAAGGTTATC	1.018 ± 0.0098
AAAGTCTTT	1.02 ± 0.047
AAAGTGAGGT	1.01 ± 0.017
AAAGTGGTGG	1.02 ± 0.039
AAAGTGTTGT	0.979 ± 0.039
AAAGTGTTTG	1.02 ± 0.016
AAAGTGTTTT	0.995 ± 0.051
AAAGTTGATT	1.01 ± 0.03
AAAGTTTCAT	0.991 ± 0.034

Sequence	switch fluorescence ratio
AAATAAAAAC	1.08 ± 0.044
AAATAACGAG	1 ± 0.036
AAATACCGGC	1.1 ± 0.16
AAATACGTCT	1.09 ± 0.096
AAATAGGCAT	1.0235 ± 0.00029
AAATAGGGGT	1 ± 0.039
AAATAGGGTA	0.993 ± 0.023
AAATAGGTG	1.12 ± 0.058
AAATAGGTGA	1.05 ± 0.025
AAATAGGTTG	1.01 ± 0.021
AAATAGTGG	0.9626 ± 0.0063
AAATATATTA	1.02 ± 0.016
AAATATTGGG	0.98 ± 0.068
AAATATTGTG	0.982 ± 0.023
AAATCCGAAT	1.01 ± 0.069
AAATCGAGCT	1.04 ± 0.049
AAATCGAGGA	1.018 ± 0.0096
AAATCGGGGG	1.05 ± 0.084
AAATCGTAGT	0.9885 ± 0.0069
AAATCGTGGA	0.987 ± 0.011
AAATCGTTGT	0.975 ± 0.043
AAATCTCGGA	1.2 ± 0.31
AAATCTCTGA	1.01 ± 0.025

Sequence	switch fluorescence ratio
AAATCTTTCG	1.05 ± 0.044
AAATGACAGT	1.01 ± 0.028
AAATGAGTTA	0.99 ± 0.019
AAATGCAAAG	0.991 ± 0.016
AAATGCCAGG	1.08 ± 0.032
AAATGGAGTG	0.987 ± 0.018
AAATGGGAAA	1.06 ± 0.084
AAATGGTGTC	1.01 ± 0.055
AAATGTCTAA	1 ± 0.019
AAATGTTCCG	1.03 ± 0.011
AAATGTTCGT	1.011 ± 0.0058
AAATGTTTAC	1.034 ± 0.0095
AAATTAACAT	1.08 ± 0.13
AAATTAGAGG	1 ± 0.026
AAATTAGTGT	0.968 ± 0.018
AAATTATTTT	0.999 ± 0.014
AAATTCATAC	1.052 ± 0.0078
AAATTCGCTG	1.01 ± 0.095
AAATTCGGCG	1.01 ± 0.023
AAATTCGGTT	0.99 ± 0.013
AAATTGAGGG	1.02 ± 0.061
AAATTGATCC	0.964 ± 0.016
AAATTGGCTT	0.97 ± 0.044

Sequence	switch fluorescence ratio
AAATTGGGTT	0.9768 ± 0.0091
AAATTGTCAA	1.01 ± 0.05
AAATTTAATC	1.02 ± 0.034
AAATTTAGGA	0.987 ± 0.021
AAATTTAGTT	1.017 ± 0.006
AAATTTCTTT	0.996 ± 0.016
AAATTTGAAT	1.0094 ± 0.00021
AAATTTGCGT	0.987 ± 0.02
AAATTTGGGA	0.969 ± 0.027
AAATTTGGGG	1 ± 0.038
AAATTTTGAA	0.977 ± 0.021
AAATTTTGAG	1.02 ± 0.032
AAATTTTTAC	1.02 ± 0.027
AAATTTTTC	1 ± 0.021
AACAAAACAA	1.04 ± 0.055
AACAAAGAGA	1.02 ± 0.026
AACAACTCTC	1.06 ± 0.017
AACAAGCCCA	1.008 ± 0.0066
AACAATTGGG	0.978 ± 0.0039
AACACGGAAC	1.29 ± 0.027
AACAGATCTG	1.02 ± 0.014
AACAGCACGA	1.28 ± 0.1
AACAGGAAAT	0.9596 ± 0.0032

Sequence	switch fluorescence ratio
AACAGGATCG	1.01 ± 0.053
AACAGGGACC	1.04 ± 0.017
AACAGGGGGT	1.01 ± 0.032
AACAGGGGTG	1.09 ± 0.015
AACAGGTTTT	1.003 ± 0.0062
AACAGTTAGG	0.9762 ± 0.0069
AACATAAAAA	1.26 ± 0.4
AACATATATT	1.02 ± 0.028
AACATCTAGC	0.994 ± 0.031
AACATGGGGG	1.01 ± 0.023
AACATGGTGC	1.01 ± 0.011
AACATTAAGC	1.04 ± 0.021
AACATTCCTT	1.23 ± 0.08
AACCAGGATT	0.9714 ± 0.0074
AACCAGGGGG	1.058 ± 0.0084
AACCATACTA	1.19 ± 0.028
AACCCAAGGG	1.09 ± 0.055
AACCCGGGAG	1.17 ± 0.2
AACCGCGGGT	1.03 ± 0.018
AACCGCGTTG	1.06 ± 0.012
AACCGCTATA	3.11 ± 1
AACCGGATCG	1.034 ± 0.01
AACCGTATGG	1 ± 0.022

Sequence	switch fluorescence ratio
AACCGTCACA	1.202 ± 0.0059
AACCGTGGGG	1.05 ± 0.042
AACCGTGGTG	1.05 ± 0.073
AACCGTTCGA	1.07 ± 0.046
AACCGTTGGT	1.01 ± 0.014
AACCTCACGC	1.73 ± 0.2
AACCTGGGGG	1.1 ± 0.15
AACCTTTGTT	1.06 ± 0.083
AACCTTTTTT	1.03 ± 0.0037
AACGAAGTCG	1 ± 0.015
AACGACGGGG	1.01 ± 0.033
AACGATATTC	1.07 ± 0.03
AACGATCGCT	1.04 ± 0.0082
AACGATTTTG	1.03 ± 0.016
AACGATTTTT	1.007 ± 0.0084
AACGCCGAGT	0.9816 ± 0.0097
AACGCGGCTG	0.9967 ± 0.0046
AACGCGTCTG	1.012 ± 0.0037
AACGCTTCAC	1.65 ± 0.054
AACGGACTTA	1.25 ± 0.044
AACGGCGCAT	1.02 ± 0.052
AACGGCGGGG	1 ± 0.017
AACGGGACGT	0.961 ± 0.06

Sequence	switch fluorescence ratio
AACGGGGAAC	0.986 ± 0.014
AACGGGGGCA	0.925 ± 0.025
AACGGGGTGT	1.062 ± 0.0093
AACGGGTACC	1.09 ± 0.088
AACGGTTGGC	0.975 ± 0.017
AACGTACGTT	1.14 ± 0.015
AACGTATATA	1.13 ± 0.026
AACGTCAGTT	1.003 ± 0.0017
AACGTCTTT	1.03 ± 0.071
AACGTGTTGT	1.02 ± 0.077
AACTAATTTT	0.9961 ± 0.0024
AACTACAGGC	1.18 ± 0.11
AACTACGCTT	1.48 ± 0.099
AACTACGTCT	0.986 ± 0.055
AACTAGATG	0.982 ± 0.025
AACTAGGGGA	1.11 ± 0.13
AACTATGCCT	1.03 ± 0.037
AACTCGGATC	1.01 ± 0.042
AACTCGGGGG	0.999 ± 0.027
